Assay results as given in patent US20090123452A1 (TORREY PINES INSTITUTE FOR MOLECULAR STUDIES AND CATALYST …, published 2009).

Assays:
u-PA/IIId (phage) = u-PA/IIId (phage) (human, UniProt P00749 179-431); assay: phage display selection: stable complex with His-tagged PAI-1/69 bait captured on Cu-sepharose; increased sensitivity against PAI-1/69
Procedure: (§1) In brief, 5 μl (˜2×10¹² to ˜1×10¹³) u-PA phage, containing an equal representation of u-PA phage from all three u-PA phage libraries (0.2, 0.5 and 0.9% mutagenesis frequency), was mixed with 5 μl bait substrate (from 0.1 to 1.0 μM PAI-1/RRAR or PAI-1/69) and 10 μl 10× indirect buffer pH 7.4 (0.5 M Tris, 1.0 M NaCl, 10 mM EDTA, 0.1% Tween 80) in a total volume of 100 μl (i.e. reaction contained 80 μl H₂O).
(§2) The u-PA phage-PAI-1 inhibitor complexes were captured using CuSO₄ activated sepharose. Pre-activation of the chelating sepharose (200 μl; Pharmacia) was accomplished by treatment with CuSO₄ (100 mM). The CuSO₄ activated sepharose was blocked with 0.5% BSA in PBS buffer for 1 hour at room temperature. 100 μl of BSA blocked sepharose beads was added to 100 μl of the above panning mixture reaction in the presence of 800 μl of binding buffer (0.5 M NaCl, 20 mM Tris, 20 mM immidozole, pH7.4) to capture the His-tagged PAI-1 inhibitor-u-PA phage complexes. The incubation was continued for another 1 hour at room temperature. Next, the panning mixture was centrifuged for 1 min at 2000 rpm and the sepharose beads containing bound u-PA phage-PAI-1 inhibitor complexes were washed with 1 ml of binding buffer to remove unbound phages. The washing step was repeated 5-10 times and the beads containing bound complexes were transferred to new tubes after each wash to avoid any potential “carry over” of non-specific phages.

u-PA/IIa (phage) = u-PA/IIa (phage) (human, UniProt P00749 179-431); assay: as above
Procedure: as §1, §2

u-PA/Ia (phage) = u-PA/Ia (phage) (human, UniProt P00749 179-431); assay: as above
Procedure: as §1, §2

u-PA/IIIc (phage) = u-PA/IIIc (phage) (human, UniProt P00749 179-431); assay: as above
Procedure: as §1, §2

u-PA/IVa (phage) = u-PA/IVa (phage) (human, UniProt P00749 179-431); assay: as above
Procedure: as §1, §2

u-PA/IVb (phage) = u-PA/IVb (phage) (human, UniProt P00749 179-431); assay: as above
Procedure: as §1, §2

u-PA/IIb (phage) = u-PA/IIb (phage) (human, UniProt P00749 179-431); assay: as above
Procedure: as §1, §2

u-PA/IIc (phage) = u-PA/IIc (phage) (human, UniProt P00749 179-431); assay: as above
Procedure: as §1, §2

u-PA/Id (phage) = u-PA/Id (phage) (human, UniProt P00749 179-431); assay: as above
Procedure: as §1, §2

u-PA/Ic (phage) = u-PA/Ic (phage) (human, UniProt P00749 179-431); assay: as above
Procedure: as §1, §2

u-PA/Ib (phage) = u-PA/Ib (phage) (human, UniProt P00749 179-431); assay: as above
Procedure: as §1, §2

u-PA/IIIa (phage) = u-PA/IIIa (phage) (human, UniProt P00749 179-431); assay: as above
Procedure: as §1, §2

u-PA/IIIb (phage) = u-PA/IIIb (phage) (human, UniProt P00749 179-431); assay: as above
Procedure: as §1, §2

[1] = molecular target: T1, u-PA/IVb (purified two-chain enzyme) (human, UniProt P00749 21-431); assay: inhibition kinetics, 2nd order rate constant
T1 construct: F30V/K82E/V159A/E80G/E84K/I89V/K187E (chymotrypsin numbering); Full-length u-PA from COS-1 cells, made two-chain with plasmin-sepharose; also called u-PA/IVb (30, 80, 82, 84, 89, 159, 187)
Source text: (§3) The indirect chromogenic assay as described in Part D above was used to determine the residual enzyme activity remaining as a function of time.
(§4) The rate constants for inhibition of wild-type or mutant u-PA by PAI-1 were under pseudo-first order conditions for an excess of PAI-1 over u-PA as described previously (see e.g., Holmes et al. (1987) Biochemistry, 26: 5133-5140; Beatty et al. (1980) J. Biol. Chem., 255:3931-3934; Madison et al. (1990) PNAS, 87: 3530-3533; Madison et al. (1993) Methods Enzymol., 223:249-271). […] Following incubation, the mixtures were diluted and the residual enzymatic activity was determined in a standard chromogenic assay as set forth in D above. Data were analyzed by plotting In (residual activity/initial activity) versus time and determining the slope of the resulting straight line. […] rate constants were then derived by dividing the slope by the concentration of the inhibitor in the reaction.
(§5) Following preincubation, the mixtures were quenched with an excess of neutralizing anti-PAI antibodies and residual enzymatic activity was measured in the indirect chromogenic assay. The indirect, chromogenic assays were compared with control reactions containing no PAI-1 or to which PAI-1 was added after preincubation and addition of anti-PAI-1 antibody, plasminogen and Spectrozyme PL to the reaction mixture.

[2] = molecular target: T2, u-PA/IIIa (purified two-chain enzyme) (human, UniProt P00749 21-431); assay: inhibition kinetics, 2nd order rate constant
T2 construct: F30V/K82E/V159A (chymotrypsin numbering); Full-length u-PA from COS-1 cells, made two-chain with plasmin-sepharose; also called u-PA/IIIa (30, 82, 159)
Source text: as §3, §4, §5

[3] = molecular target: T3, u-PA/IVa (purified two-chain enzyme) (human, UniProt P00749 21-431); assay: inhibition kinetics, 2nd order rate constant
T3 construct: F30V/K82E/V159A/E80G/I89V/K187E (chymotrypsin numbering); Full-length u-PA from COS-1 cells, made two-chain with plasmin-sepharose; also called u-PA/IVa (30, 80, 82, 89, 159, 187)
Source text: as §3, §4, §5

[4] = molecular target: T4, u-PA/IIIb (purified two-chain enzyme) (human, UniProt P00749 21-431); assay: inhibition kinetics, 2nd order rate constant
T4 construct: F30V/K82E/T39A/V159A (chymotrypsin numbering); Full-length u-PA from COS-1 cells, made two-chain with plasmin-sepharose; also called u-PA/IIIb (30, 39, 82, 159)
Source text: as §3, §4, §5

[5] = molecular target: T5, u-PA/IIb (purified two-chain enzyme) (human, UniProt P00749 21-431); assay: inhibition kinetics, 2nd order rate constant
T5 construct: F30V/K82E (chymotrypsin numbering); Full-length u-PA from COS-1 cells, made two-chain with plasmin-sepharose; also called u-PA/IIb (30, 82)
Source text: as §3, §4, §5

[6] = molecular target: T6, u-PA/Ic (purified two-chain enzyme) (human, UniProt P00749 21-431); assay: inhibition kinetics, 2nd order rate constant
T6 construct: F30V (chymotrypsin numbering); Full-length u-PA from COS-1 cells, made two-chain with plasmin-sepharose; also called u-PA/Ic (30)
Source text: as §3, §4, §5

binding result (u-PA/IIId (phage)): binds | binding result (u-PA/IIa (phage)): binds | binding result (u-PA/Ia (phage)): binds | binding result (u-PA/IIIc (phage)): binds | binding result (u-PA/IVa (phage)): binds | binding result (u-PA/IVb (phage)): binds | binding result (u-PA/IIb (phage)): binds | binding result (u-PA/IIc (phage)): binds | binding result (u-PA/Id (phage)): binds | binding result (u-PA/Ic (phage)): binds | binding result (u-PA/Ib (phage)): binds | binding result (u-PA/IIIa (phage)): binds | binding result (u-PA/IIIb (phage)): binds | binding result [1]: binds | binding result [2]: binds | binding result [3]: binds | binding result [4]: binds | binding result [5]: binds | binding result [6]: binds
B1: mutant PAI-1/69 inhibitor (other)
chain: VHHPPSYVAHLASDFGVRVFQQVAQASKDRNVVFSPYGVASVLAMLQLTTGGETQQQIQAAMGFKIDDKGMAPALRHLYKELMGPWNKDEISTTDAIFVQRDLKLVQGFMPHFFRLFRSTVKQVDFSEVERARFIINDWVKTHTKGMISNLLGKGAVDQLTRLVLVNALYFNGQWKTPFPDSSTHRRLFHKSDGSTVSVPMMAQTNKFNYTEFTTPDGHYYDILELPYHGDTLSMFIAAPYEKEVPLSALTNILSAQLISHWKGNMTRLPRLLVLPKFSLETEVDLRKPLENLGMTDMFRQFQADFTSLSDQEPLHVAQALQKVKIEVNESGTVASSSTAVIPFGRSAPEEIIMDRPFLFVVRHNPTGTVLFMGQVMEP
notes: not shown: N-terminal poly histidine residues from the pPAIST7HS vector
